Results on three substances are retold here after US20110311550A1.

The term EC50 denotes the concentration at which the effect is half-maximal. The term IC50 denotes the point on the concentration scale where inhibition reaches its midpoint. High values mean a need for much substance, low ones inhibition by little substance.

In test [1] the target is HCV E1E2 complex, isolate H77 (genotype 1a) (hepatitis C virus genotype 1a, isolate H77) (UniProt P27958).
For test [2] the target is unchanged. Briefly: apparent affinity: half-maximal binding, ELISA on lectin-captured E1E2.
In test [3] the target is HCV E1E2 complex, isolate HCV-1 (genotype 1a), vaccinia-expressed (hepatitis C virus genotype 1a, isolate HCV-1) (UniProt P26664). Described as above.
In test [4] the target is HCV E1E2 complex, isolate H77 (genotype 1a) (hepatitis C virus genotype 1a, isolate H77) (UniProt P27958). As to the kind of experiment: ELISA, mAb with E1E2 (H77), then CD81-LEL plate.
Test [5] has the same target. As to the kind of experiment: competition ELISA on lectin-captured H77 E1E2; competitor: Fab Q1. (In an ELISA, binding on a coated surface is turned into a signal by an enzyme label.)
Test [6] concerns the target E1E2 complex of HCV isolate H77 (genotype 1a), wild type (HCV isolate H77) (UniProt P27958). As to the kind of experiment: competition ELISA on H77 E1E2; competitor m45 (Fab P3).
Test [7] shares this target. As to the kind of experiment: competition ELISA on H77 E1E2; competitor m40 (Fab N4).
The target is the same in test [8]. As to the kind of experiment: competition ELISA on H77 E1E2; competitor m46 (Fab P4).
The target of test [9] is HCV E1E2 complex, isolate H77 (genotype 1a) (hepatitis C virus genotype 1a, isolate H77) (UniProt P27958). Briefly: competition ELISA on lectin-captured H77 E1E2; competitor: Fab S1.
The target is the same in test [10]. Briefly: competition ELISA on lectin-captured H77 E1E2; competitor: Fab R1.
Test [11] shares this target. Briefly: competition ELISA on lectin-captured H77 E1E2; competitor: AR2A (in the Blocking Fab columns).
The target of test [12] is E1E2 complex of HCV isolate H77 (genotype 1a), wild type (HCV isolate H77) (UniProt P27958). Briefly: competition ELISA on H77 E1E2; competitor m44 (Fab P2).
For test [13] the target is unchanged. Briefly: competition ELISA on H77 E1E2; competitor m42 (Fab P1).
Test [14] addresses HCV E1E2 complex, isolate H77 (genotype 1a) (hepatitis C virus genotype 1a, isolate H77) (UniProt P27958). As to the kind of experiment: competition ELISA on lectin-captured H77 E1E2; competitor: Fab Q2.
Test [15] deals with E1E2 complex of HCV isolate H77 (genotype 1a), wild type (HCV isolate H77) (UniProt P27958). Briefly: competition ELISA on H77 E1E2; competitor m39 (Fab N3).
Test [16] concerns the target HCV E1E2 complex, isolate H77 (genotype 1a) (hepatitis C virus genotype 1a, isolate H77) (UniProt P27958). As to the kind of experiment: competition ELISA on lectin-captured H77 E1E2; competitor: Fab T1.
The target is the same in test [17]. Briefly: competition ELISA on lectin-captured H77 E1E2; competitor: AR1B (in the Blocking Fab columns).
For test [18], the target named is E1E2 complex of HCV isolate H77 (genotype 1a), wild type (HCV isolate H77) (UniProt P27958). Briefly: competition ELISA on H77 E1E2; competitor m43 (Fab P1a).
In test [19] the target is HCV E1E2 complex, isolate H77 (genotype 1a) (hepatitis C virus genotype 1a, isolate H77) (UniProt P27958). As to the kind of experiment: competition ELISA on lectin-captured H77 E1E2; competitor: Fab U1.
Test [20] shares this target. Briefly: competition ELISA on lectin-captured H77 E1E2; competitor: Fab P6.
In test [21] the target is E1E2 complex of HCV isolate H77 (genotype 1a), wild type (HCV isolate H77) (UniProt P27958). As to the kind of experiment: competition ELISA on H77 E1E2; competitor m37 (Fab N1).
For test [22] the target is unchanged. Briefly: competition ELISA on H77 E1E2; competitor m38 (Fab N2).
Test [23] addresses HCV E1E2 complex, isolate H77 (genotype 1a) (hepatitis C virus genotype 1a, isolate H77) (UniProt P27958). As to the kind of experiment: competition ELISA on lectin-captured H77 E1E2; competitor: Fab V1.
For test [24] the target is unchanged. As to the kind of experiment: competition ELISA on lectin-captured H77 E1E2; competitor: Fab P5.
Test [25] addresses E1E2 complex of HCV isolate H77 (genotype 1a), wild type (HCV isolate H77) (UniProt P27958). Briefly: competition ELISA on H77 E1E2; competitor m41 (Fab O1).

Like-named read-outs stand apart in the source and are kept apart here.

MAb AR3D (antibody) registered a residual binding in test [1] of 58%.
Consider MAb AR3D (IgG1 from Fab L4) (antibody), for which the values for the 50% effective concentration (EC50) in test [2] and in test [3] were 4 nM and 2.4 nM, respectively. Further, the IC50 in test [4] amounted to 1 nM.
As to mouse MAb A4 (antibody), the residual binding in [5] is 95%; in test [9] it was 100%; in [10], 99%; in test [11], 87%; in test [14] it was 98%; in [16], 99%. In addition, the residual binding worked out at 85% in test [17]; 101% in test [19]; 99% in [20]; 99% in test [23]; 100% in test [24]. Moreover, the % residual binding stood at 100% in test [6]; 100% in test [7]; 98% in test [8]; 102% in test [12]; 101% in test [13]; 96% in [15]. The % residual binding amounted to 100% in test [18], 100% in test [21], 101% in test [22] and 96% in [25].
